Experimental data reported in patent US20170335404A1 (REGENTS OF THE UNIVERSITY OF MINNESOTA, published 2017).

T1: recombinant human Nectin-1 extracellular domain (human, UniProt Q15223 31-355)
T1 sequence (looked up): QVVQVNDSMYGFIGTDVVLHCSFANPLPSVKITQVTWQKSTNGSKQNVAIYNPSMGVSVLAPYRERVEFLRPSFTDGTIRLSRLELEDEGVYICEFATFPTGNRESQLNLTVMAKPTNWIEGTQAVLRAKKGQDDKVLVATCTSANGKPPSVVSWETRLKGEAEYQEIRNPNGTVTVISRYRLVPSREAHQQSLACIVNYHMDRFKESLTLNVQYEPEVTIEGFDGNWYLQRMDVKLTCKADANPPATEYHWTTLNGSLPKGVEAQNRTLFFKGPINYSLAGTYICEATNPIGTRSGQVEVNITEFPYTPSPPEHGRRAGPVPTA

T2: Nectin-4 natively expressed on NIH:OVCAR5 parental cells (human, UniProt Q96NY8 32-510)
T2 construct: whole, on cells; The cells also express Nectin-1; also called NIH:OVCAR-5 cells
T2 sequence (looked up): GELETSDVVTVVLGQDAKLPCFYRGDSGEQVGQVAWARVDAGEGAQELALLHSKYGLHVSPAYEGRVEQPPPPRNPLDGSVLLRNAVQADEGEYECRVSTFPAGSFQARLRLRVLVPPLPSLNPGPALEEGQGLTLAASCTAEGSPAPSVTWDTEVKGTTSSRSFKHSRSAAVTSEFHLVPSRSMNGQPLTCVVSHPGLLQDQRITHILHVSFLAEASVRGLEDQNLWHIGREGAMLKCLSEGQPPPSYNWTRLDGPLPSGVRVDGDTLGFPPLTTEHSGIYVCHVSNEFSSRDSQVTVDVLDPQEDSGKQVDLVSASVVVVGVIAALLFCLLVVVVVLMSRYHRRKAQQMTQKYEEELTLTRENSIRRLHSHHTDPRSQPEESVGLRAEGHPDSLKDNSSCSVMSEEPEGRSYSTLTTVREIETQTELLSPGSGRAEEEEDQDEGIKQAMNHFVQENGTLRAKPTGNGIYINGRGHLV


Assays:
[1] = target: recombinant human Nectin-1 extracellular domain (human) (UniProt Q15223); test: cell-based or functional assay
[2] = target: T1, recombinant human Nectin-1 …; test: cell-based or functional assay
[3] = target: full-length Nectin-4 overexpressed on NIH:OVCAR5-N4-over cells, Q96NY8; test: cell-based or functional assay
[4] = target: T2, Nectin-4 natively expressed on …; test: cell adhesion assay, NIH:OVCAR5 parental cells on coated microtiter plates
Experimental: Black, clear-bottom 96-well microtiter plates (Corning, Imported Costar, Corning, N.Y.) were coated with recombinant human Nectin-1 extracellular domain (R&D Systems), recombinant human Nectin-4 extracellular domain (R&D Systems), mouse laminin (Invitrogen™), or bovine serum albumin (BSA; Prohumin Diagnostic Grade, MilliPore) diluted in PBS. Covered plates were incubated overnight at 37° C. in a humidified incubator. After washing with PBS plus Ca²⁺/Mg²⁺ containing 2 mg/ml ovalbumin (Sigma-Aldrich), the plates were blocked for 1 h at 37° C. with 1% BSA in PBS without Ca²⁺/Mg²⁺. Confluent monolayers of NIH:OVCAR5 cells or NIH:OVCAR5-N4-over cells were detached with Accutase, and then filtered through a 40 μm cell strainer (BD Biosciences, San Jose, Calif.) to remove cell aggregates. The single cells were stained with CellTracker Green CMFDA (5-chlorornethylfluorescein diacetate; Invitrogen™) according to the manufacturer's protocol. After washing the plate, 30,000 cells were added to each well in 50 μl of RPMI 1640 media containing 2 mg/ml ovalbumin and allowed to adhere for 15-60 min at 37° C. Plates were vigorously washed four times and read in a BioTek Synergy fluorescent microplate reader (BioTek, Winooski, Va.). Experiments were conducted in triplicate. […]

| inhibition of adhesion of NIH:OVCAR5-N4-over cells to Nectin-1 [2] | inhibition of adhesion of NIH:OVCAR5-N4-over cells to Nectin-1 [3] [%] | Molecule | further results |
| --- | --- | --- | --- |
| – | – | mouse monoclonal antibody against human Nectin-1, R&D Systems MAB2880, clone #610835 | inhibition of cell adhesion to Nectin-1 [1]: 60% |
| ≥ 50 >=50 of the printed range 50-100 % | – | H-WTRLDGPLPSGVRV-NH2 [N4-P22] | – |
| – | > 50 | H-ACIVNYHMDRFKES-NH2 [N1-P17] | – |
| ≥ 50 >=50 of the printed range 50-100 % | – | H-TGNGIYINGRGHLV-NH2 [N4-P29] | – |
| – | > 50 | H-NWYLQRMDVKLTCK-NH2 [N1-P20] | inhibition of cell adhesion [3]: 100% |
| ≥ 50 >=50 of the printed range 50-100 % | – | H-QRITHILHVSFLAE-NH2 [N4-P18] | – |
| ≥ 50 >=50 of the printed range 50-100 % | – | H-QARLRLRVLVPPLP-NH2 [N4-P10] | – |
| – | > 50 | H-HSQVVQVNDSMYGF-NH2 [N1-P1] | – |
| – | > 50 | H-VNITEFPYTPSPPEHGRRA-NH2 [N1-P26] | – |
| – | – | recombinant human Nectin-4 extracellular domain (receptor, UniProt Q96NY8 32-349, looked up, extracellular domain; Bought reagent, coated on microtiter plates; also called recombinant Nectin-4) GELETSDVVTVVLGQDAKLPCFYRGDSGEQVGQVAWARVDAGEGAQELALLHSKYGLHVSPAYEGRVEQPPPPRNPLDGSVLLRNAVQADEGEYECRVSTFPAGSFQARLRLRVLVPPLPSLNPGPALEEGQGLTLAASCTAEGSPAPSVTWDTEVKGTTSSRSFKHSRSAAVTSEFHLVPSRSMNGQPLTCVVSHPGLLQDQRITHILHVSFLAEASVRGLEDQNLWHIGREGAMLKCLSEGQPPPSYNWTRLDGPLPSGVRVDGDTLGFPPLTTEHSGIYVCHVSNEFSSRDSQVTVDVLDPQEDSGKQVDLVSAS | binding result [4]: no binding (tested: 1 µg/well, up to 1 h) |
